From US8512703B2, “Idiotypic vaccine” (Areta International S.R.L., priority 2007, dated 2013)

Biological target: T1, Class I HLA molecule A*0101 in recombinant form
T1 MHC heavy: not shown
Assay: iTopia ELISA-like peptide-HLA binding
Excerpt: (§1) In order to identify and validate the immunogenic epitopes of the protein VK3-20, the iTopia™ high-throughput Epitope Discovery System was used (Beckman Coulter).

Compared with VYYCQQYGS [VK3-20 peptide No 86 VYYCQQYGS], FTLTISRLE [VK3-20 peptide No 72 FTLTISRLE] is higher in Bond results: 1% for the first, 4% for the second.

QQYGSSPRT [VK3-20 peptide No 90 QQYGSSPRT] and QYGSSPRTF [VK3-20 peptide No 91 QYGSSPRTF] are the same in Bond results: 1% for the first, 1% for the second.

First: RLEPEDFAV [VK3-20 peptide No 78 RLEPEDFAV]
Second: YLAWYQQKP [VK3-20 peptide No 33 YLAWYQQKP]
The Bond results of the first is higher: 1% for the first, 0% for the second.

KPGQAPRLL [VK3-20 peptide No 40 KPGQAPRLL] and GQAPRLLIY [VK3-20 peptide No 42 GQAPRLLIY] are the same in Bond results: 0% for the first, 0% for the second.

First: RLLIYGASS [VK3-20 peptide No 46 RLLIYGASS]
Second: LIYGASSRA [VK3-20 peptide No 48 LIYGASSRA]
The Bond results of the first is lower: 0% for the first, 1% for the second.

IVSSSYLAW [VK3-20 peptide No 28 IVSSSYLAW] and VLTQSPGTL [VK3-20 peptide No 3 VLTQSPGTL] are the same in Bond results: 0% for the first, 0% for the second.

Compared with TQSPGTLSF [VK3-20 peptide No 5 TQSPGTLSF], SYLAWYQQK [VK3-20 peptide No 32 SYLAWYQQK] is lower in Bond results: 1% for the first, 0% for the second.

For VSSSYLAWY [VK3-20 peptide No 29 VSSSYLAWY], the Bond results was 44%.

Biological target: T2, Class I HLA molecule A*0201 in recombinant form
T2 construct: also called HLA-A*0201
T2 MHC heavy: not shown
Assay: iTopia ELISA-like peptide-HLA binding
Excerpt: as §1

Going from VYYCQQYGS [VK3-20 peptide No 86 VYYCQQYGS] to FTLTISRLE [VK3-20 peptide No 72 FTLTISRLE], the Bond results rises from 1% to 22%.

Going from QQYGSSPRT [VK3-20 peptide No 90 QQYGSSPRT] to QYGSSPRTF [VK3-20 peptide No 91 QYGSSPRTF], the Bond results falls from 12% to 0%.

Going from RLEPEDFAV [VK3-20 peptide No 78 RLEPEDFAV] to YLAWYQQKP [VK3-20 peptide No 33 YLAWYQQKP], the Bond results rises from 19% to 41%.

Going from KPGQAPRLL [VK3-20 peptide No 40 KPGQAPRLL] to GQAPRLLIY [VK3-20 peptide No 42 GQAPRLLIY], the Bond results rises from 2% to 10%.

Going from RLLIYGASS [VK3-20 peptide No 46 RLLIYGASS] to LIYGASSRA [VK3-20 peptide No 48 LIYGASSRA], the Bond results rises from 24% to 32%.

Going from VLTQSPGTL [VK3-20 peptide No 3 VLTQSPGTL] to TQSPGTLSF [VK3-20 peptide No 5 TQSPGTLSF], the Bond results falls from 23% to 3%.

First: SYLAWYQQK [VK3-20 peptide No 32 SYLAWYQQK]
Second: VSSSYLAWY [VK3-20 peptide No 29 VSSSYLAWY]
The Bond results of the first is higher: 10% for the first, 4% for the second.

The binders below were run against Class I HLA molecule A*0301 in recombinant form (UniProt P04439 25-302) (assay: iTopia ELISA-like peptide-HLA binding).
Excerpt: as §1

Going from ASQIVSSSY [VK3-20 peptide No 25 ASQIVSSSY] to VYYCQQYGS [VK3-20 peptide No 86 VYYCQQYGS], the Bond results falls from 2% to 0%.

Going from FTLTISRLE [VK3-20 peptide No 72 FTLTISRLE] to QQYGSSPRT [VK3-20 peptide No 90 QQYGSSPRT], the Bond results rises from 2% to 3%.

Compared with QYGSSPRTF [VK3-20 peptide No 91 QYGSSPRTF], RLEPEDFAV [VK3-20 peptide No 78 RLEPEDFAV] is higher in Bond results: 1% for the first, 2% for the second.

Compared with YLAWYQQKP [VK3-20 peptide No 33 YLAWYQQKP], KPGQAPRLL [VK3-20 peptide No 40 KPGQAPRLL] is lower in Bond results: 4% for the first, 2% for the second.

First: GQAPRLLIY [VK3-20 peptide No 42 GQAPRLLIY]
Second: RLLIYGASS [VK3-20 peptide No 46 RLLIYGASS]
The Bond results of the first is higher: 10% for the first, 0% for the second.

First: IVSSSYLAW [VK3-20 peptide No 28 IVSSSYLAW]
Second: VLTQSPGTL [VK3-20 peptide No 3 VLTQSPGTL]
The Bond results of the first is higher: 4% for the first, 2% for the second.

Compared with TQSPGTLSF [VK3-20 peptide No 5 TQSPGTLSF], SYLAWYQQK [VK3-20 peptide No 32 SYLAWYQQK] is higher in Bond results: 1% for the first, 23% for the second.

VSSSYLAWY [VK3-20 peptide No 29 VSSSYLAWY] gave a Bond results of 2%.

Biological target: T3, Class I HLA molecule A*1101 in recombinant form (UniProt P04439 25-302)
T3 MHC heavy: not shown
Assay: iTopia ELISA-like peptide-HLA binding
Excerpt: as §1

Compared with VYYCQQYGS [VK3-20 peptide No 86 VYYCQQYGS], FTLTISRLE [VK3-20 peptide No 72 FTLTISRLE] is higher in Bond results: 1% for the first, 4% for the second.

Compared with QQYGSSPRT [VK3-20 peptide No 90 QQYGSSPRT], QYGSSPRTF [VK3-20 peptide No 91 QYGSSPRTF] is lower in Bond results: 11% for the first, 1% for the second.

RLEPEDFAV [VK3-20 peptide No 78 RLEPEDFAV] and YLAWYQQKP [VK3-20 peptide No 33 YLAWYQQKP] are the same in Bond results: 2% for the first, 2% for the second.

Compared with KPGQAPRLL [VK3-20 peptide No 40 KPGQAPRLL], LIYGASSRA [VK3-20 peptide No 48 LIYGASSRA] is higher in Bond results: 0% for the first, 60% for the second.

First: IVSSSYLAW [VK3-20 peptide No 28 IVSSSYLAW]
Second: VLTQSPGTL [VK3-20 peptide No 3 VLTQSPGTL]
The Bond results of the first is higher: 3% for the first, 0% for the second.

First: TQSPGTLSF [VK3-20 peptide No 5 TQSPGTLSF]
Second: SYLAWYQQK [VK3-20 peptide No 32 SYLAWYQQK]
The Bond results of the first is lower: 0% for the first, 28% for the second.

Biological target: T4, Class I HLA molecule A*2402 in recombinant form
T4 MHC heavy: not shown
Assay: iTopia ELISA-like peptide-HLA binding
Excerpt: as §1

Compared with ASQIVSSSY [VK3-20 peptide No 25 ASQIVSSSY], VYYCQQYGS [VK3-20 peptide No 86 VYYCQQYGS] is higher in Bond results: 13% for the first, 21% for the second.

First: FTLTISRLE [VK3-20 peptide No 72 FTLTISRLE]
Second: QYGSSPRTF [VK3-20 peptide No 91 QYGSSPRTF]
The Bond results of the first is lower: 18% for the first, 65% for the second.

Compared with YLAWYQQKP [VK3-20 peptide No 33 YLAWYQQKP], GQAPRLLIY [VK3-20 peptide No 42 GQAPRLLIY] is lower in Bond results: 14% for the first, 12% for the second.

Compared with RLLIYGASS [VK3-20 peptide No 46 RLLIYGASS], IVSSSYLAW [VK3-20 peptide No 28 IVSSSYLAW] is higher in Bond results: 0% for the first, 34% for the second.

Going from VLTQSPGTL [VK3-20 peptide No 3 VLTQSPGTL] to TQSPGTLSF [VK3-20 peptide No 5 TQSPGTLSF], the Bond results rises from 18% to 28%.

First: SYLAWYQQK [VK3-20 peptide No 32 SYLAWYQQK]
Second: VSSSYLAWY [VK3-20 peptide No 29 VSSSYLAWY]
The Bond results of the first is higher: 29% for the first, 12% for the second.

The binders below were run against Class I HLA molecule B*0702 in recombinant form (UniProt P01889 25-302) (assay: iTopia ELISA-like peptide-HLA binding).
Excerpt: as §1

First: FTLTISRLE [VK3-20 peptide No 72 FTLTISRLE]
Second: RLEPEDFAV [VK3-20 peptide No 78 RLEPEDFAV]
The Bond results of the first is higher: 11% for the first, 4% for the second.

Going from KPGQAPRLL [VK3-20 peptide No 40 KPGQAPRLL] to RLLIYGASS [VK3-20 peptide No 46 RLLIYGASS], the Bond results falls from 29% to 0%.

VLTQSPGTL [VK3-20 peptide No 3 VLTQSPGTL] and TQSPGTLSF [VK3-20 peptide No 5 TQSPGTLSF] are the same in Bond results: 0% for the first, 0% for the second.

Going from SYLAWYQQK [VK3-20 peptide No 32 SYLAWYQQK] to VSSSYLAWY [VK3-20 peptide No 29 VSSSYLAWY], the Bond results falls from 4% to 1%.

Biological target: T5, Class I HLA molecule B*0801 in recombinant form (UniProt P01889 25-309, limits assumed)
T5 MHC heavy: not shown
Assay: iTopia ELISA-like peptide-HLA binding
Excerpt: as §1

Compared with ASQIVSSSY [VK3-20 peptide No 25 ASQIVSSSY], VYYCQQYGS [VK3-20 peptide No 86 VYYCQQYGS] is lower in Bond results: 2% for the first, 0% for the second.

Compared with FTLTISRLE [VK3-20 peptide No 72 FTLTISRLE], QQYGSSPRT [VK3-20 peptide No 90 QQYGSSPRT] is lower in Bond results: 6% for the first, 1% for the second.

First: QYGSSPRTF [VK3-20 peptide No 91 QYGSSPRTF]
Second: RLEPEDFAV [VK3-20 peptide No 78 RLEPEDFAV]
The Bond results of the first is higher: 1% for the first, 0% for the second.

First: YLAWYQQKP [VK3-20 peptide No 33 YLAWYQQKP]
Second: KPGQAPRLL [VK3-20 peptide No 40 KPGQAPRLL]
The Bond results of the first is higher: 2% for the first, 1% for the second.

Going from GQAPRLLIY [VK3-20 peptide No 42 GQAPRLLIY] to RLLIYGASS [VK3-20 peptide No 46 RLLIYGASS], the Bond results falls from 2% to 0%.

First: LIYGASSRA [VK3-20 peptide No 48 LIYGASSRA]
Second: IVSSSYLAW [VK3-20 peptide No 28 IVSSSYLAW]
The Bond results of the first is higher: 3% for the first, 2% for the second.

Compared with VLTQSPGTL [VK3-20 peptide No 3 VLTQSPGTL], TQSPGTLSF [VK3-20 peptide No 5 TQSPGTLSF] is higher in Bond results: 1% for the first, 2% for the second.

SYLAWYQQK [VK3-20 peptide No 32 SYLAWYQQK] and VSSSYLAWY [VK3-20 peptide No 29 VSSSYLAWY] are the same in Bond results: 1% for the first, 1% for the second.

Biological target: T6, Class I HLA molecule B*1501 in recombinant form (limits assumed)
T6 MHC heavy: not shown
Assay: iTopia ELISA-like peptide-HLA binding
Excerpt: as §1

Going from ASQIVSSSY [VK3-20 peptide No 25 ASQIVSSSY] to VYYCQQYGS [VK3-20 peptide No 86 VYYCQQYGS], the Bond results falls from 49% to 1%.

Going from FTLTISRLE [VK3-20 peptide No 72 FTLTISRLE] to QQYGSSPRT [VK3-20 peptide No 90 QQYGSSPRT], the Bond results rises from 3% to 24%.

QYGSSPRTF [VK3-20 peptide No 91 QYGSSPRTF] and RLEPEDFAV [VK3-20 peptide No 78 RLEPEDFAV] are the same in Bond results: 2% for the first, 2% for the second.

First: YLAWYQQKP [VK3-20 peptide No 33 YLAWYQQKP]
Second: KPGQAPRLL [VK3-20 peptide No 40 KPGQAPRLL]
The Bond results of the first is higher: 2% for the first, 0% for the second.

Going from GQAPRLLIY [VK3-20 peptide No 42 GQAPRLLIY] to RLLIYGASS [VK3-20 peptide No 46 RLLIYGASS], the Bond results falls from 49% to 0%.

First: LIYGASSRA [VK3-20 peptide No 48 LIYGASSRA]
Second: IVSSSYLAW [VK3-20 peptide No 28 IVSSSYLAW]
The Bond results of the first is higher: 11% for the first, 0% for the second.

Going from VLTQSPGTL [VK3-20 peptide No 3 VLTQSPGTL] to TQSPGTLSF [VK3-20 peptide No 5 TQSPGTLSF], the Bond results rises from 0% to 44%.

First: SYLAWYQQK [VK3-20 peptide No 32 SYLAWYQQK]
Second: VSSSYLAWY [VK3-20 peptide No 29 VSSSYLAWY]
The Bond results of the first is lower: 0% for the first, 2% for the second.
